From patent US20180064758A1

Tests used:
[1] = biological target: Recombinant soluble CD19 ectodomain (made in 293T cells) (UniProt P15391); assay: flow cytometry of transduced primary human T-cells stained with anti-CD3 and, for CAR, with recombinant CD19. Other quadrants: 74.7 upper left, 1.86 lower left, 0.16 lower right. The non-transduced control has 0.27 in the upper right
[2] = biological target: CD19 (partner in the 'Cellular affinity' column); assay: column 'Cellular affinity' of the drawn table; unit not given, the assay is not described in the filing and the format of the construct is not stated
[3] = biological target: Recombinant soluble CD19 ectodomain (made in 293T cells) (UniProt P15391); assay: flow cytometry of transduced primary human T-cells stained with anti-CD3 and, for CAR, with recombinant CD19. Other quadrants: 67.5 upper left, 1.43 lower left, 0.24 lower right. The non-transduced control has 0.27 in the upper right

Chain of UniProt P15391 (P15391 20-291 limits assumed): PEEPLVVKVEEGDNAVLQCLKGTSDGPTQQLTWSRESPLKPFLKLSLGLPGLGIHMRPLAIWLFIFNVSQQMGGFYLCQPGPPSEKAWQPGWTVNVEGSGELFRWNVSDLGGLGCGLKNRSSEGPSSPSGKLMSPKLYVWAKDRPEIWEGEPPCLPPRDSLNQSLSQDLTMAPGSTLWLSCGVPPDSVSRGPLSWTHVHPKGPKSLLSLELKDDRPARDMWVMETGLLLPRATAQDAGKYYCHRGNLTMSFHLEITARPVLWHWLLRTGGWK

Row | Cellular affinity [2] | Substance | further results
1 | – | 4G7 CAR in the Campana format (CD8 stalk spacer and transmembrane domain, 41BB endodomain, CD3-Zeta endodomain), on primary human T-cells | % of cells in the CD3+ CAR+ quadrant (upper right) [1]: 23.3%
2 | 1e-09 | 4G7 scFv-Fc (soluble recombinant scFv in scFv-Fc format, made in 293T cells) (Fc fusion) | –
3 | 2e-10 | Fmc63 scFv-Fc (soluble recombinant scFv in scFv-Fc format, made in 293T cells) (Fc fusion) | –
4 | – | fmc63 CAR in the Campana format (CD8 stalk spacer and transmembrane domain, 41BB endodomain, CD3-Zeta endodomain), on primary human T-cells | % of cells in the CD3+ CAR+ quadrant (upper right) [3]: 30.8%
